Literature values as cited in patent US20060084109.

Target: T1, Formamidopyrimidine glycosylase (Fpg, MutM) (Escherichia coli) (UniProt P05523)
T1 sequence: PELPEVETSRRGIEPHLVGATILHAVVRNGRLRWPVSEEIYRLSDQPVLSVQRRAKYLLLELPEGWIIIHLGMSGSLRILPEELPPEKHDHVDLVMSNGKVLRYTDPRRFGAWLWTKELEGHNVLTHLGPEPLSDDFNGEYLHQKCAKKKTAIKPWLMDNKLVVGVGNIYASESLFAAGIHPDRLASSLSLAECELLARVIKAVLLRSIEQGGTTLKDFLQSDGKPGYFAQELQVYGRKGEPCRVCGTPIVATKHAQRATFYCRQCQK
Assay: cleavage_in_vitro
Conditions: 8-oxo-dG at position 10, cytidine opposite in complementary strand; CITED Vuyisich and Beal 2002; product from 20 nM substrate, 1 nM Fpg, 7 min, room temperature, no inhibitor

## TCATGGGTCNTCGGTATA (double strand) [Fpg 18-mer 8-oxo-dG substrate duplex]
  activity: 2 nM
